Assay results reported in the supplement of paper PMC10567573.

B1: KRT15 (parent)
chain: SNFHINVEESVDGQVVSSHKREI
B2: TRIM39 (parent)
chain: YPCVLATEGFTSGRHYWEVEVGDK

Variants of: B1
Test: protein stability index of a GFP-peptide fusion (GPS, HEK-293T) (PSI 1-6); higher = more stable
Conditions: c terminus: native
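Further: lentivirally expressed fusions sorted by FACS into six bins by GFP to DsRed ratio, PSI derived from sequencing read proportions per bin multiplied by bin number.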

Variant | protein stability index
SNFHINVEESVDGQVVISHKREI | 1.12
SNFHINVEESVDGQVVPSHKREI | 1.43
SNFHINVEESVDGQVVWSHKREI | 4.29
SNFHINVEESVDGQVVVSHKREI | 2.42
SNFHINVEESVDGQVVFSHKREI | 2.65
SNFHINVEESVDGQVVDSHKREI | 1.8
SNFHINVEESVDGQVVRSHKREI | 1.7
SNFHINVEESVDGQVVASHKREI | 2.37
SNFHINVEESVDGQVVQSHKREI | 1.68
SNFHINVEESVDGQVVLSHKREI | 2.06
SNFHINVEESVDGQVVNSHKREI | 1.91
SNFHINVEESVDGQVVHSHKREI | 2.17
SNFHINVEESVDGQVVGSHKREI | 2.73
SNFHINVEESVDGQVVYSHKREI | 2.27
SNFHINVEESVDGQVVMSHKREI | 1.29
SNFHINVEESVDGQVVESHKREI | 2.91
SNFHINVEESVDGQVVTSHKREI | 2.5
SNFHINVEESVDGQVVKSHKREI | 1.82
SNFHINVEESVDGQVVSSHKFEI | 4.32
SNFHINVEESVDGQVVSSHKEEI | 5.02
SNFHINVEESVDGQVVSSHKLEI | 4.52
SNFHINVEESVDGQVVSSHKYEI | 4.83
SNFHINVEESVDGQVVSSHKAEI | 4.45

Variant | protein stability index
SNFHINVEESVDGQVVSSHKNEI | 3.89
SNFHINVEESVDGQVVSSHKMEI | 4.91
SNFHINVEESVDGQVVSSHKVEI | 3.79
SNFHINVEESVDGQVVSSHKTEI | 4.4
SNFHINVEESVDGQVVSSHKQEI | 4.48
SNFHINVEESVDGQVVSSHKCEI | 4.43
SNFHINVEESVDGQVVSSHKWEI | 3.38
SNFHINVEESVDGQVVSSHKHEI | 3.9
SNFHINVEESVDGQVVSSHKKEI | 4.88
SNFHINVEESVDGQVVSSHKIEI | 3.16
SNFHINVEESVDGQVVSSHKDEI | 4.89
SNFHINVEESVDGQVVSSHKPEI | 3.5
SNFHINVEESVDGQVVSSHKGEI | 4.9
SNFHINVEESVDGQVVSSHKSEI | 5.13
SNFHINVEESVDGQVVSSNKREI | 4.44
SNFHINVEESVDGQVVSSFKREI | 1.33
SNFHINVEESVDGQVVSSAKREI | 2.75
SNFHINVEESVDGQVVSSIKREI | 2.03
SNFHINVEESVDGQVVSSYKREI | 3.48
SNFHINVEESVDGQVVSSDKREI | 5
SNFHINVEESVDGQVVSSEKREI | 4.9
SNFHINVEESVDGQVVSSPKREI | 4.66
SNFHINVEESVDGQVVSSQKREI | 2.88

Variant | protein stability index
SNFHINVEESVDGQVVSSMKREI | 2.39
SNFHINVEESVDGQVVSSSKREI | 4.55
SNFHINVEESVDGQVVSSKKREI | 2.95
SNFHINVEESVDGQVVSSCKREI | 2.22
SNFHINVEESVDGQVVSSLKREI | 2.08
SNFHINVEESVDGQVVSSVKREI | 3.51
SNFHINVEESVDGQVVSSHCREI | 2.39
SNFHINVEESVDGQVVSSHMREI | 3.15
SNFHINVEESVDGQVVSSHVREI | 2.4
SNFHINVEESVDGQVVSSHAREI | 3.58
SNFHINVEESVDGQVVSSHEREI | 1.49
SNFHINVEESVDGQVVSSHTREI | 3.08
SNFHINVEESVDGQVVSSHRREI | 3.06
SNFHINVEESVDGQVVSSHFREI | 2.07
SNFHINVEESVDGQVVSSHIREI | 2.45
SNFHINVEESVDGQVVSSHGREI | 3.06
SNFHINVEESVDGQVVSSHLREI | 1.39
SNFHINVEESVDGQVVSSHQREI | 2.77
SNFHINVEESVDGQVVSSHDREI | 3.86
SNFHINVEESVDGQVVSSHNREI | 5.38
SNFHINVEESVDGQVVSSHWREI | 3.4
SNFHINVEESVDGQVVSSHHREI | 2.51
SNFHINVEESVDGQVVSSHPREI | 1.94

Variant | protein stability index
SNFHINVEESVDGQVVSSHYREI | 2.18
SNFHINVEESVDGQVVSSHKRHI | 4.64
SNFHINVEESVDGQVVSSHKRII | 4.12
SNFHINVEESVDGQVVSSHKRNI | 4.82
SNFHINVEESVDGQVVSSHKRFI | 4.19
SNFHINVEESVDGQVVSSHKRRI | 2.87
SNFHINVEESVDGQVVSSHKRCI | 4.59
SNFHINVEESVDGQVVSSHKRLI | 4.53
SNFHINVEESVDGQVVSSHKRSI | 3.52
SNFHINVEESVDGQVVSSHKRQI | 4.37
SNFHINVEESVDGQVVSSHKRWI | 3.94
SNFHINVEESVDGQVVSSHKRPI | 4.74
SNFHINVEESVDGQVVSSHKRMI | 4.05
SNFHINVEESVDGQVVSSHKRDI | 4.97
SNFHINVEESVDGQVVSSHKRTI | 4.46
SNFHINVEESVDGQVVSSHKRKI | 4.82
SNFHINVEESVDGQVVSSHKRGI | 5.28
SNFHINVEESVDGQVVSSHKRAI | 4.63
SNFHINVEESVDGQVVSSHKRYI | 4.1
SNFHINVEESVDGQVVSNHKREI | 2.72
SNFHINVEESVDGQVVSPHKREI | 3.1
SNFHINVEESVDGQVVSEHKREI | 3.06
SNFHINVEESVDGQVVSQHKREI | 1.27

Variant | protein stability index
SNFHINVEESVDGQVVSMHKREI | 1
SNFHINVEESVDGQVVSGHKREI | 1.54
SNFHINVEESVDGQVVSIHKREI | 2.44
SNFHINVEESVDGQVVSAHKREI | 1.37
SNFHINVEESVDGQVVSRHKREI | 3.29
SNFHINVEESVDGQVVSCHKREI | 2.21
SNFHINVEESVDGQVVSYHKREI | 3.37
SNFHINVEESVDGQVVSKHKREI | 2.06
SNFHINVEESVDGQVVSDHKREI | 3.92
SNFHINVEESVDGQVVSTHKREI | 1.63
SNFHINVEESVDGQVVSSHKREK | 5.16
SNFHINVEESVDGQVVSSHKREV | 4.83
SNFHINVEESVDGQVVSSHKREY | 4.55
SNFHINVEESVDGQVVSSHKREF | 4.74
SNFHINVEESVDGQVVSSHKRER | 3.09
SNFHINVEESVDGQVVSSHKREN | 4.98
SNFHINVEESVDGQVVSSHKRET | 4.32
SNFHINVEESVDGQVVSSHKREC | 4.94
SNFHINVEESVDGQVVSSHKREA | 4.14
SNFHINVEESVDGQVVSSHKREG | 3.55
SNFHINVEESVDGQVVSSHKREQ | 4.43
SNFHINVEESVDGQVVSSHKREW | 2.45
SNFHINVEESVDGQVVSSHKRED | 4.89

Variant | protein stability index
SNFHINVEESVDGQVVSSHKREP | 3.83
SNFHINVEESVDGQVVSSHKREE | 2.44
SNFHINVEESVDGQVVSSHKREM | 2.52
SNFHINVEESVDGQVVSSHKRES | 3.79
SNFHINVEESVDGQVVSSHKREH | 4.13
SNFHINVEESVDGQVFSSHKREI | 2.63
SNFHINVEESVDGQVMSSHKREI | 2.23
SNFHINVEESVDGQVNSSHKREI | 2.46
SNFHINVEESVDGQVESSHKREI | 2.85
SNFHINVEESVDGQVKSSHKREI | 2.2
SNFHINVEESVDGQVTSSHKREI | 2.99
SNFHINVEESVDGQVYSSHKREI | 2
SNFHINVEESVDGQVGSSHKREI | 2.82
SNFHINVEESVDGQVSSSHKREI | 2.18
SNFHINVEESVDGQVLSSHKREI | 2.37
SNFHINVEESVDGQVHSSHKREI | 1.2
SNFHINVEESVDGQVDSSHKREI | 2.86
SNFHINVEESVDGQVPSSHKREI | 2.18
SNFHINVEESVDGQVQSSHKREI | 2.62

Variants of: B2
Test: as above
Conditions: c terminus: a fixed tail appended

Variant | protein stability index
SPCVLATEGFTSGRHYWEVEVGDK | 3.49
WPCVLATEGFTSGRHYWEVEVGDK | 2.74
FPCVLATEGFTSGRHYWEVEVGDK | 1.59
TPCVLATEGFTSGRHYWEVEVGDK | 3.78
CPCVLATEGFTSGRHYWEVEVGDK | 2.7
NPCVLATEGFTSGRHYWEVEVGDK | 3.76
VPCVLATEGFTSGRHYWEVEVGDK | 2.8
DPCVLATEGFTSGRHYWEVEVGDK | 3.45
GPCVLATEGFTSGRHYWEVEVGDK | 3.34
QPCVLATEGFTSGRHYWEVEVGDK | 3.71
PPCVLATEGFTSGRHYWEVEVGDK | 4.24
RPCVLATEGFTSGRHYWEVEVGDK | 3.52
APCVLATEGFTSGRHYWEVEVGDK | 3.11
KPCVLATEGFTSGRHYWEVEVGDK | 3.15
LPCVLATEGFTSGRHYWEVEVGDK | 2.96
HPCVLATEGFTSGRHYWEVEVGDK | 3.55
MPCVLATEGFTSGRHYWEVEVGDK | 3.11
EPCVLATEGFTSGRHYWEVEVGDK | 3.65
IPCVLATEGFTSGRHYWEVEVGDK | 2.98
YPIVLATEGFTSGRHYWEVEVGDK | 2.41

Variant | protein stability index
YPWVLATEGFTSGRHYWEVEVGDK | 1.97
YPAVLATEGFTSGRHYWEVEVGDK | 2.05
YPQVLATEGFTSGRHYWEVEVGDK | 1.9
YPFVLATEGFTSGRHYWEVEVGDK | 1.86
YPHVLATEGFTSGRHYWEVEVGDK | 1.98
YPEVLATEGFTSGRHYWEVEVGDK | 3.41
YPKVLATEGFTSGRHYWEVEVGDK | 1.48
YPDVLATEGFTSGRHYWEVEVGDK | 1.9
YPGVLATEGFTSGRHYWEVEVGDK | 1.98
YPVVLATEGFTSGRHYWEVEVGDK | 2.01
YPTVLATEGFTSGRHYWEVEVGDK | 1.81
YPNVLATEGFTSGRHYWEVEVGDK | 1.7
YPRVLATEGFTSGRHYWEVEVGDK | 2.99
YPMVLATEGFTSGRHYWEVEVGDK | 1.91
YPYVLATEGFTSGRHYWEVEVGDK | 1.98
YPSVLATEGFTSGRHYWEVEVGDK | 2
YPLVLATEGFTSGRHYWEVEVGDK | 2.09
YLCVLATEGFTSGRHYWEVEVGDK | 2.35
YNCVLATEGFTSGRHYWEVEVGDK | 2.21
YKCVLATEGFTSGRHYWEVEVGDK | 1.99

Variant | protein stability index
YMCVLATEGFTSGRHYWEVEVGDK | 1.76
YACVLATEGFTSGRHYWEVEVGDK | 1.84
YECVLATEGFTSGRHYWEVEVGDK | 2.67
YGCVLATEGFTSGRHYWEVEVGDK | 2.58
YFCVLATEGFTSGRHYWEVEVGDK | 1.78
YCCVLATEGFTSGRHYWEVEVGDK | 1.94
YVCVLATEGFTSGRHYWEVEVGDK | 2.4
YSCVLATEGFTSGRHYWEVEVGDK | 1.52
YQCVLATEGFTSGRHYWEVEVGDK | 2.05
YICVLATEGFTSGRHYWEVEVGDK | 1.1
YRCVLATEGFTSGRHYWEVEVGDK | 1.86
YTCVLATEGFTSGRHYWEVEVGDK | 2.21
YYCVLATEGFTSGRHYWEVEVGDK | 1.66
YDCVLATEGFTSGRHYWEVEVGDK | 2.92
YPCCLATEGFTSGRHYWEVEVGDK | 2.03
YPCALATEGFTSGRHYWEVEVGDK | 1.73
YPCELATEGFTSGRHYWEVEVGDK | 2.88
YPCDLATEGFTSGRHYWEVEVGDK | 2.54
